The target of assay [1] is recombinant murine CTLA-4-human IgG1 Fc chimera (R&D Systems) (mouse; human) (UniProt P09793). The assay can be described thus: competitive ELISA: mouse CD80 coated (competitor), murine CTLA-4-human IgG1 Fc chimera at 10 ng/ml mixed with scFv supernatant, anti-human IgG1-HRP. On the technique in general: In an ELISA, binding on a coated surface is turned into a signal by an enzyme label.

The target is the same in assay [2]. Put plainly: competitive ELISA: mouse CD86 coated (competitor), murine CTLA-4-human IgG1 Fc chimera at 10 ng/ml mixed with scFv supernatant, anti-human IgG1-HRP.
The target of assay [3] is IL-12 receptor on HEK-Blue™ IL-12 cells (InvivoGen) (UniProt P42701). The assay can be described thus: cell-based or functional assay.
The target of assay [4] is mouse TGF-β1 (R&D systems) (mouse) (UniProt P04202). Put plainly: direct ELISA with mouse TGF-β1 on supernatant of transfected HEK293T cells.
For assay [5] the target is unchanged. Put plainly: direct ELISA with mouse TGF-β1 on concentrated supernatant of transfected HEK293T cells.

Consider six substances from patent US20220119824A1.

Turning to “Anti-CTLA-4 scFv (ipilimumab scFv antibody fragment)”, in assay [1], the % CD80 Blockade Activity is 7%. Moreover, the % CD86 Blockade Activity in assay [2] turned out to be 32.5%.

In turn, Human membrane bound IL-12p70 (ligand) showed an STAT4-SEAP reporter in HEK-Blue IL-12 cells co-cultured with transfected HEK cells (Absorbance/% GFP) (Absorbance/% GFP) in assay [3] of 0.237.

In turn, Mouse membrane bound IL-12p70 (ligand) gave an STAT4-SEAP reporter in HEK-Blue IL-12 cells co-cultured with transfected HEK cells (Absorbance/% GFP) (Absorbance/% GFP) in assay [3] of 0.117.

As to “Soluble mouse TGFβ receptor II Fc (from UniProt Q62312 24-166) (Fc fusion)”, the Absorbance at 450 nm (absorbance at 450 nm) in assay [4] turned out to be 1.51; in assay [5], 1.52.

“huIL-12p70 (soluble human IL-12p70) (from UniProt P29460 23-328; P29459 23-219) (ligand)” had an STAT4-SEAP reporter in HEK-Blue IL-12 cells co-cultured with transfected HEK cells (Absorbance/% GFP) (Absorbance/% GFP) in assay [3] of 0.11.

Regarding “muIL-12p70 (soluble murine IL-12p70) (from UniProt P43432 23-335; P43431 23-215) (ligand)”, the STAT4-SEAP reporter in HEK-Blue IL-12 cells co-cultured with transfected HEK cells (Absorbance/% GFP) (Absorbance/% GFP) in assay [3] was 0.11.
